Source: US20030232781A1

Target: T1, CTCF (full-length) (UniProt P49711)
T1 sequence: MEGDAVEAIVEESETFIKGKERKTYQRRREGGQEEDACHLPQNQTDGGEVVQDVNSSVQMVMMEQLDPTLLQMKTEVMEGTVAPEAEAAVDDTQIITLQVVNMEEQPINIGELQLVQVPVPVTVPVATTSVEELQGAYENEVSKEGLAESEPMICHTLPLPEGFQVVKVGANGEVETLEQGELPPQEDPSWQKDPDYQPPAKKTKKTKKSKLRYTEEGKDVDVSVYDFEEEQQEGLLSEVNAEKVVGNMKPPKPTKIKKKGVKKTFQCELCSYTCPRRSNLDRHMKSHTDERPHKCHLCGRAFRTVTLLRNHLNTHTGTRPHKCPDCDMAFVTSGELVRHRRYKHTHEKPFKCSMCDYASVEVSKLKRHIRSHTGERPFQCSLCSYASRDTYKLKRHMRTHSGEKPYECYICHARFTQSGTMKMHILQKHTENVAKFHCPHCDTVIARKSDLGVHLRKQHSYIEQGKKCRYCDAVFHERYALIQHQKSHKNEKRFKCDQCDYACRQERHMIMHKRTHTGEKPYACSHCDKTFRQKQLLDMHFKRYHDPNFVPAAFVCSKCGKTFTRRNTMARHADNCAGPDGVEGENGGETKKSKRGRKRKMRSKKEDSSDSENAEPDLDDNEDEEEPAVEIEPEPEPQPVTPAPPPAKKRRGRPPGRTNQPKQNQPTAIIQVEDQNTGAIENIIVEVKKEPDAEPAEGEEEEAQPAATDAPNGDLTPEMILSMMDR
Assay: SPR
Details: 5mC at all CpG (SssI); at least 1000-fold lower than unmethylated; no stable complexes

## CGCGKGGTGGCAG (double strand) [DMD4 methylated]
  Ka: 1e+08 M⁻¹

## CGCGKGGTGGCAG (double strand) [DMD7 methylated]
  Ka: 1e+08 M⁻¹
